Assay results: publication PMC5173322, “Neurodegenerative disease mutations in TREM2 reveal a functional surface and distinct loss-of-function mechanisms” (eLife, 2016)

B1: human TREM2 ectodomain Y38C (domain or fragment, UniProt Q9NZC2 19-134, looked up)
chain: HNTTVFQGVAGQSLQVSCPCDSMKHWGRRKAWCRQLGEKGPCQRVVSTHNLWLLSFLRRWNGSTAITDDTLGGTLTITLRNLQPHDAGLYQCQSLHGSEADTLRKVLVEVLADPLD
notes: TREM2, human, ectodomain, limits as the WT ectodomain (amino acids 19-134), Nasu-Hakola disease mutation Y38C; it was detected by anti-6His Western blot; also called NHD mutant Y38C; source: Freestyle 293F cells, transfected, secreted; harvested for preparative SEC; not shown: His6, C-terminal, kept
B2: human TREM2 ectodomain T66M (domain or fragment, UniProt Q9NZC2 19-134, looked up)
chain: HNTTVFQGVAGQSLQVSCPYDSMKHWGRRKAWCRQLGEKGPCQRVVSMHNLWLLSFLRRWNGSTAITDDTLGGTLTITLRNLQPHDAGLYQCQSLHGSEADTLRKVLVEVLADPLD
notes: TREM2, human, ectodomain, limits as the WT ectodomain (amino acids 19-134), Nasu-Hakola disease mutation T66M; it was detected by anti-6His Western blot; also called NHD mutant T66M; source: Freestyle 293F cells, transfected, secreted; harvested for preparative SEC; not shown: His6, C-terminal, kept
B3: human TREM2 ectodomain V126G (domain or fragment, UniProt Q9NZC2 19-134, looked up)
chain: HNTTVFQGVAGQSLQVSCPYDSMKHWGRRKAWCRQLGEKGPCQRVVSTHNLWLLSFLRRWNGSTAITDDTLGGTLTITLRNLQPHDAGLYQCQSLHGSEADTLRKVLGEVLADPLD
notes: TREM2, human, ectodomain, limits as the WT ectodomain (amino acids 19-134), Nasu-Hakola disease mutation V126G; it was detected by anti-6His Western blot; also called NHD mutant V126G; source: Freestyle 293F cells, transfected, secreted; harvested for preparative SEC; not shown: His6, C-terminal, kept

Molecular target: the molecule itself
Assay: SEC; preparative SEC of NHD mutant ectodomains harvested from 293F suspension cells; fractions analysed by anti-6His Western blot

Protein | binding result
B1 | binds
B2 | binds
B3 | binds
